Assay results published in the RNAGym collection of RNA variant scans (doi:10.1073/pnas.2313332121).
Variants at the floor of the assay were thinned out.

B1: TPR 5TU (parent)
chain: GGAUCUUCUCGAUCUAACAAAAAAGACAAAUCUGCCACAAAGCUUGAGAGCAUCUUCGGAUGCAGAGGCGGCAGCCUUCGGUGGCGCGAUAGCGCCAACGUUCUCAACUAUGACACGCAAAACGCGUGCUCCGUUGAAUGGAGUUUAUCAUG

Variants of: B1
Experiment: polymerase ribozyme fitness, log enrichment relative to wild type (log ratio); higher = more active; in vitro selection for triplet polymerase activity
Method in brief: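 Frozen incubation at −7 °C formed the core of a single, triplicate in vitro selection round applied to PCR-built, transcribed mutant libraries of each subunit of a heterodimeric triplet polymerase ribozyme. Extended constructs were gel-excised, captured with streptavidin beads and amplified by RT-PCR, and input and output libraries were Illumina-sequenced with a filter of ≥10 input reads and ≥1 read per output. Fitness is the logarithm of genotype enrichment relative to wild-type enrichment, with inverse-variance-weighted replicate averaging, and the logarithm is base 2.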

Variant	polymerase ribozyme fitness (log ratio)
GGAUCUUAUCGAUCUAACAAAAAAGACAAAUCUGCCACAAAGCUUGAGAGCAUCUUCGGAUGCAGAGGCGGCAGCCUUCGGUGGAGAGAUAGCGCCAACGUUCUCAACUAUGACACGCAAAACACGUGCUCCGUUGAAUGGAGUUUAUCAUG [C8A C85A C87A G124A]	≤ -4.2
GGAUCUUAUCGAUCUAACAAAACAGCCAAAUCCGCCACAAAGCUUGAGAGCAUCUUCGGAUGCAGAGGCGGCAGCCUGCGGUGGCGCGAUAGCGCCAGCGUUCUCAACUAUGACACGCAAAACGCGUGCUCCGUUGAAUGGAGGUUAUCAUG [C8A A23C A26C U33C U78G A98G U144G]	≤ -4.2
GGAUCUUAUCGAUCUAACAAAAAAGACAAAUCUGCAACAAAGCUUGAGAGCAUCUUCGGAUGCAGAGCCGGCAGCCUUCGGUGGCGCGAUAGCGCUAAAGUUCUCAACUAUGACACGCAAAACGCGUCCUCCGUUGAAUGGAGUUUAUCAUG [C8A C36A G68C C96U C99A G128C]	≤ -4.2
GGAUCUUAUCGAUCUAACCAAAAAGACAAAUCUGGCACAAAGCUUGAGAGCCUCUUCGGAUGCAGAGGCGGCAGCCUUCGGUGGCGGGAUAGCGCCAACGUUCUCAACUAUGACACGCAAAACGCGUGCUCCGUUGAAUGGAGUUUAUCAUG [C8A A19C C35G A52C C87G]	≤ -4.2
GGAUCUUAUCGAUCUAACAAAAAAGACAAAUCUGCCACAAAGCUUGAGAGCAUCUUCGGAUGCAGAGGCGGCAGCCUUCGGUGGCGCGAUAGCGCAAACGUUCUCAACUUGGACACGCAAAACGCGUGCUCCGUUGAAUGGAGUUUAUCAUG [C8A C96A A110U U111G]	≤ -4.2
GGAUCUUAUCGAUCUAACAAAAAAGACAAAUCUGCCACAAAGCUUGAGAGCAUCUUCGGAUGCAGAGGCGGCAGCAUUCGGUGGCGCUAUAGCUCCAACGUUCUCAACUAUGACACGCAAAACGCGUGCUCGGUUGAACGGAGUUUAUCAUG [C8A C76A G88U G94U C132G U139C]	≤ -4.2
GGAUCUUAUCGAUCUAACAAAAAAGACAAAUCUGCCACAAAGCUUGAGAGCAUUUUCGGAUGCAGAGGCGGCAGCCUUCGGUGGCGCGAUAGCGCCAACGUUCUCAACUAUGACACGCAAAACGCGUGCUCCGUUGAAUGGAGUUUAUCAUG [C8A C54U]	-3.64
GGAUCUUAUCGAUCUAACAAAAAAGACAAAUCUGCCACAAAGCUUGAGAGCAUCUUCGGAUGCAGAGGCGGCAGCCUUCGGUGGCGGGAUAGCGCCAACGUUCUCAACUAUGACACGCAAAACGCGUGCUCCGUUGAAUGGAGUUUAUCAUG [C8A C87G]	≤ -4.2
GGAUCUUAUCGAUCUAACAAAAAAGACAAAUCUGCCACAAAGCUUGAGAGCAUCUUCGGAUGCAGAGGCGGCAGCCUUCGGUGGCGUGAUAGCGCCAACGUUCUCAACUAUGACACGCAAAACGCGUGCUCCGUUGAAUGGAGUUUAUCAUG [C8A C87U]	-3.89
GGAUCUUAUCGAUCUAACAAAAAAGACACAUCUGCCCCAAAGCUUGUGAGCAUCUUCGGAUGCAGAGGCGGCAGCCUUCGGUGGCGCGAUAGCGCCAACGUUCUCAACUAUGACACGCGAAACGCGUGCUCCGUUGAAUGGAGUUUAUCAUG [C8A A29C A37C A47U A119G]	≤ -4.2
GGAUCUUAUCGAUCUAACAAAAAAGACAAAUCUGCCACAAAGCUUGAGAGAAUCUUAGAAAGCAGACGCGGCAGCCUUCGGUGGCGCGAUAGCGUCAACGUUCUCAACUAUGACACGCAAAACGUGUGCUCCGCUGAAAGGAGUUUAUCAUG [C8A C51A C57A G59A U61A G67C C95U C125U U134C U139A]	≤ -4.2
GGAUCUUAUCGAUCUAACCAAAAAGACAAAUCUGCCACAAAGCUUGAGAGCAUCUUCGGAUGCAGAGGCGGAAGCCUUCGGUGGCGCGAUAGCGAGAACGUUCUCAACUAUGACACGCAAAACGCGUGCUUCGUUCAAUGGAGUUUAUCAUG [C8A A19C C72A C95A C96G C131U G136C]	≤ -4.2
GGAUCUUAUCGAUCUAACAAAAAAGACAAAUCUGCCACAAAGCUUGAGAGCAUCUUCGGAUGCGGAGGCGGCAGCCUUCGGAGGCGCGAUUGCGCCCACGUUCUCAACUAUGACACGCAAAGCGCGUGCUCCGUUGAAUGGCGUUUAUCAUG [C8A A64G U82A A91U A97C A122G A142C]	≤ -4.2
GGAUCUUAUCGAUCUAACAAAAAAGACAAAUCUGCCAUAAAGCUUGAGAGCAUCUUUGGAUGCAGAGGCGGCAGCCUUGGGUGGCGCGAUAGCGCGAACGUUCUCAACUAUGACACGCAAAACGCGUGCUCCGUUGAAUGGAGUUUAUCAUG [C8A C38U C57U C79G C96G]	≤ -4.2
GGAUCUUAUCGAUCUACCAAAAAAGACAAAUCUGCCACAAAGCUUGAGAGCAUCUUCGGAUACAGAGACGGCAGCCUUCGGUGGUGCGAUAGCGCCAACGUUCUCAACUAGGACACGCAAAACGCGUGCUCCGUUGAAUGGAGUUUAUCAUG [C8A A17C G62A G68A C85U U111G]	≤ -4.2
GGAUCUUAUCGCUCUAACAAAAAAGACAAAUCUGCCACAAACCUUGAGAGCAUCUUCGGAUGCAGAGGCGGUAGCCUUCGGUGGCACGAUAGCGCCAACGUUCUCAACUAUGACACGCAAAACGCGUGCUCCGUUGAAUGGAGUUUAUCAUG [C8A A12C G42C C72U G86A]	≤ -4.2
GGAUCUUAUCGAUCUAACAAAAAAGACAAAUCUGCUACAAAGCUUGAGAGCAUCUUCGGAUUCAGAGGCGGCAGCCUUCGGUGGCGCGAUAGCGGCAACGUUCUCAACUAUGACUCGCAAAACGCGUGCUCCGUUGAAUGGAGUUUAUCAUG [C8A C36U G62U C95G A115U]	≤ -4.2
GGAUCUUAUCGAUCUAGCAAUAAAGACAAAUCUGCCAUAAAGCUUGAGAGCAUCUUCGGAUGCAGAGGCGGCAGCCUUCGGUGGCACGAUAGCGCCAAGGUUCUCAACUAUGACACGCAAAACGCUUGCUCCGUUGAAGGGAGUUUAUCAUG [C8A A17G A21U C38U G86A C99G G126U U139G]	≤ -4.2
GGAUCUUAUCGAUCUAACAAAAAAGACAAAUCUGCCACAAAGCUUGAGAGCAUCUUCGGAUGCAGAGGCGGCAGCCUUCGGUGGCGCGAUAGCGCAAACGUUCUCAACUAUGACACGCAAAACGCGUGCUCCGUUGAAUGGAGUUUAUCAUG [C8A C96A]	-3.5
